# Test results from patent US9701739B2, “Monoclonal antibody having immunosuppressive activity or antigen binding fragment thereof” (Josai University Corporation, priority 2010, dated 2017).
# B1: SSVmAb: IgG1 monoclonal antibody produced by Mouse-Mouse hybridoma SSV-C 93-3 (NITE BP-972), raised against … peptide-KLH conjugate (antibody, V domains shown)
# VH: EIQLQQSGAELVKPGASVKISCKASGYSFTGYNMNWVKQSHGKSLEWIGNINPYYGSTSYNQKFKGKATLTVDKSSSTAYMQLNSLTSEDSAVYYCARSPYYSNYWRYFDYWGQGTTLTVSS
# VL: QIVLSQSPAILSASPGEKVTMTCRASSSVSYMHWYQQKPGSSPKPWIYATSNLASGVPARFSGSGSGTSYSLTISRVEAEDAATYYCQQWSSNPWTFGGGTKLEIK
# notes: IgG1 monoclonal antibody produced by Mouse-Mouse hybridoma SSV-C 93-3 (NITE BP-972), raised against … peptide-KLH conjugate
# What was measured:
# [1] = tested on: histone H1, H2A, H2B, H3 or H4; experiment: ELISA determination of the affinity for histone H1 and core histone; format: binding; settings: 5 μg/mL antibody, FIGS. 2 and 3
# Method: For an antigen, histone H1, which is an antigen of Reference Example 1 (16G9 mAb), and core histone H2A, H2B, H3 and H4, which are histone H1 antigen analogs, were selected.
# The Affinities between histone H1 or core histone and SSVmAb were determined by ELISA.
# A 96 well microplate was coated with histone H1, H2A, H2B, H3 or H4. Each histone used was dissolved in 100 mM sodium carbonate buffer (pH 9.3). The plate was washed with PBS-tween 20 (0.05%), and blocked with 3% skim milk and 1% BSA for 1 hour. To each well, 5 μg/mL SSVmAb was added, and incubated for 1 hour. Bound SSVmAb was detected using peroxidase (HRP) conjugated anti mouse IgG1Ab (SIGMA), and incubated for 1 hour. Bound SSVmAb was detected using the ABTS [2,2′-azino-bis(3-ethylbenzothiazoline-sulfonic acid)] substrate solution, and absorbance at 405 nm was measured using Multiskan Ascent (Thermo Fisher Scientific Inc., Waltham, Mass.).
# [2] = tested on: Spleen lymphocytes from a naive DA rat (responsive cells) with mitomycin-C treated LEW rat spleen lymphocytes; experiment: Mixed lymphocyte reaction (MLR) test, BrdU incorporation; format: cell-based
# Method: Spleen lymphocytes from a naive DA rat (responsive cells) and spleen lymphocytes from a LEW rat treated with mitomycin-C (Kyowa Hakko Kogyo Co., Ltd.) were used. The responsive cells were adjusted to 5×10^5 cells/mL with 10% FCS—RPMI culture medium, and the stimulated cells were adjusted to 8×10^6 cells/mL with 10% FCS—RPMI culture medium. After plating the responsive cell suspension and the stimulated cell suspension in an amount of 100 μL to a 96 well round-bottom plate (Nunc Brand Products) respectively, the monoclonal antibody 16G9 mAb of Reference Example 1 (0.1, 2, 4, or 6 μg/mL/well) or the monoclonal antibody SSVmAb of Example 1 (4 μg/mL/well) was added at the start of mixed culture, and cultured for 3.5 days or longer under the conditions of 37° C., 5% CO2/95% air. In addition, an immunosuppressive agent tacrolimus (FK506: Fujisawa Pharmaceutical Co., Ltd., 1 nM/well) was added as a positive control. Further, 10 μL bromo deoxyuridine (BrdU) was added 15 hours before the end of culture. Then the proliferation potential of the cells treated with the immunosuppressive agent was measured using BrdU labeling & detection kit III (Roche Diagnostics K.K.) using the amount of BrdU incorporated into cellular DNA as an indicator. The proliferation potential was used as an indicator for a level of immunosuppression.
# [3] = tested on: CD3 positive T cells; experiment: Reactivity of the monoclonal antibody with T cells by flow cytometry (FACS); format: cell-based, C57BL/6 mouse; settings: unstimulated T cells, 10 μl of 100 μg/ml primary antibody, student t-test, FIG. 5
# Method: Using the following approach, spleen was removed from a C57BL/6 mouse (5 weeks old, female, CHARLES RIVER LABORATORIES JAPAN, INC.) to prepare whole splenic cells.
# First, in a 5 ml culture dish (BD Bioscience FALCON 351007) into which 5 ml RPMI 1640 culture medium (Sigma-Aldrich, R-8758) was transferred, spleen was disentangled well with scissors for dissection and forceps to suspend the splenic cells, which were then transferred to a 15 ml centrifuge tube (BD Bioscience FALCON 352096). Then, the 5 ml dish was washed several times with phosphate-buffered saline (PBS, Invitrogen, 20012-027), and these were also added to the foregoing cell suspension and allowed to stand, and then the supernatant was collected in another 15 ml centrifuge tube. In addition, 5 ml RPMI 1640 culture medium was also added to the residual insoluble spleen tissue again and allowed to stand, and then only the supernatant was collected, which was combined with the above-mentioned cell suspension to perform centrifugation at 1,500 rpm for 5 min. To the collected cells, added was 2 ml lysis buffer (150 mM NH4Cl/15 mM NaHCO3/0.1 mM EDTA-Na2, pH 7.3) and hemolyzed by tapping, and then 10 ml PBS was added. After washed 3 times by centrifugation at 1,500 rpm for 5 min, whole splenic cells were obtained. […]
# The reactivity of the above unstimulated with 16G9 mAb or SSV mAb was analyzed by flow cytometry (FACS). […]
# [4] = tested on: T cells from a Balb/c mouse (mitochondria ATP synthase knocked down or not); experiment: MLR test with T cells with or without mitochondria ATP synthase knock-down by siRNA; format: cell-based
# Method: First, T cells from a Balb/c mouse having mitochondria ATP synthase knocked down were obtained using Accell siRNA kit from Thermo Fisher Scientific Inc.
# Next, according to the method in Test Example 2, MLR tests were performed using Example 1 (SSV mAb) as a test substance using the T cells obtained.
# In the test, Isotype IgG1 (eBioscience) was used as a control reagent. In addition, a similar test was performed using T cells from a mouse not having the ATP synthase knocked down as a control test.
molecule,measurement,setting,value
B1,"affinity for histone H2A, H2B, H3 or H4 compared with affinity for histone H1 (absorbance at 405 nm)",[1],higher than the affinity for histone H1
same,absorbance which indicates the amount of incorporated BrdU,"[2]; 4 μg/mL/well, mean±S.E., cultured 3.5 days or longer, FIG. 4",0.552±0.114
same,absorbance (incorporated BrdU) compared with reference antibody and tacrolimus,"[2]; SSVmAb 4 μg/mL/well, 16G9 mAb 0.1, 2, 4 or 6 μg/mL/well, FK506 1 nM/well",lower than that of Reference Example 1 (16G9 mAb) and tacrolimus (FK506)
same,mean absorbance of Example 1 relative to that of Reference Example 1,[2]; same amount added (4 μg/mL/well),about 41%
same,reactivity with CD3 positive T cells,[3],comparative reactivity
same,cell growth inhibition compared with Isotype IgG1,"[4]; ATP synthase knocked down, FIG. 6B",no significant difference
same,cell growth inhibition compared with Isotype IgG1,"[4]; ATP synthase not knocked down, FIG. 6A",significantly inhibited cell growth
